{"source": "patent US11932683B2", "about": "“Cellular factors involved in the cytotoxicity of Staphylococcus aureus leukocidins: novel therapeutic targets” (NEW YORK UNIVERSITY, priority 2013, dated 2024)", "key": {"mice": {"system": "mice", "test": "Survival of mice upon bloodstream (intravenous) administration of purified toxin", "format": "in vivo, mouse", "details": "intravenous injection, 10 μg of each subunit, n=5"}, "human PMNs": {"system": "human PMNs", "test": "Viability of primary human neutrophils (PMNs) treated with leukotoxins", "format": "cell-based"}, "CCR5": {"target": "T1, CCR5 (Homo sapiens, UniProt P51681)", "T1 construct": "expressed in transfected cells; host or cells: HEK293T", "T1 sequence (P51681 whole entry)": "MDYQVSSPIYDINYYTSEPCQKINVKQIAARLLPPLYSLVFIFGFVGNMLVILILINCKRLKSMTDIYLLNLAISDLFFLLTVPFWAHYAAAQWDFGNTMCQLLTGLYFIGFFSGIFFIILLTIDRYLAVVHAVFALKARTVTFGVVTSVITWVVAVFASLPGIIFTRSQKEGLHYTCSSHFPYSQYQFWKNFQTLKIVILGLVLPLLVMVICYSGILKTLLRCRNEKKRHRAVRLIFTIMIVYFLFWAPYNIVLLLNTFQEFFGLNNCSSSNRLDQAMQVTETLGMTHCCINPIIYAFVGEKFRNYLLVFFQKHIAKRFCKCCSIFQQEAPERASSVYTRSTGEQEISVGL", "test": "Toxin susceptibility of HEK293T cells transfected with CCR5", "format": "cell-based", "details": "ethidium bromide permeability (1 hr; HlgAB 20 μg/ml)"}, "monocytes within PBMCs": {"system": "monocytes within PBMCs", "test": "LukED treatment of human PBMCs, CD14/CD3 flow cytometry", "format": "cell-based", "details": "PBMCs from a Δ32Ccr5 donor; LukED 75 nM", "protocol": "(§1) Isolation of PBMCs. Blood was obtained as buffy coats with the consent of de-identified donors from the New York Blood Center. PBMCs were isolated from blood using a Ficoll-Paque PLUS gradient (GE Amersham) and gated on CCR5^+ cells, followed by anti-CD3 and CD14 cell surface staining for lymphocyte and monocyte populations. Cells were then incubated with LukED (75 nM) in the presence or absence of maraviroc (MVC, 100 ng ml-1).\nCCR5 inhibitor and ligands. Maraviroc was obtained through the AIDS Research and Reference Reagent Program, Division of AIDS (NIAID, NIH) and used at a final concentration of 100 ng ml-1.\n(§2) FACS analysis. Cell staining was performed as described previously (Alonzo et al., “CCR5 is a Receptor for Staphylococcus aureus Leukotoxin ED,” Nature 493:51-55 (2013), which is hereby incorporated by reference in its entirety). FACS data were obtained using FACSDiva software on a LSRII flow cytometer (BD Biosciences). Data was analyzed using FlowJo software (Treestar).\n(§3) Leukotoxin treatments. HEK293T cells, THP-1, primary human PBMCs and primary murine peritoneal exudate cells were treated with LukE, LukD or LukED as previously described (Alonzo et al., “CCR5 is a Receptor for Staphylococcus aureus Leukotoxin ED,” Nature 493:51-55 (2013), which is hereby incorporated by reference in its entirety). In all experiments 1-2×10^5 cells were seeded into 96-well plates. […]"}, "[1]": {"system": "murine peritoneal exudate cells (PMNs, CCR5^+ macrophages)", "test": "Killing of murine peritoneal exudate cells (PEC) by toxins in vitro", "format": "cell-based, mouse", "details": "300 nM", "protocol": "Murine in vitro and in vivo experiments. To evaluate LukED-mediated killing of murine cells in vitro, C57BL/6 WT mice (Taconic) were injected intraperitoneally with 1×10^7 CFU of heatkilled S. aureus Newman ΔlukED. Twenty-four hours post injection, another dose of 1×10^7 CFU of heat-killed S. aureus Newman ΔlukED was injected as before. After an additional twenty-four hours, mice were sacrificed and immune cells were collected by peritoneal cavity lavage using 8 ml of PBS. Red blood cells were lysed using 2 ml ACK lysis buffer (Gibco) followed by resuspension of remaining peritoneal exudate cells in RPMI+10% FBS. Cells were incubated with PBS, LukED or LukE^DR4D (300 nM) and incubated for 30 minutes on ice. After incubation, the cells were washed three times with PBS then stained with the fixable viability dye eFluor-450, followed by cell surface staining with CD11b, B220, F480, CD3, Ly6G, CCR5 and CXCR2 antibodies. Cell viability of specific immune cell populations was subsequently analyzed on an LSRII flow cytometer (BD). FACS plots are representative of results obtained from cells isolated from at least 3 independent animals."}, "CXCR2": {"target": "T2, CXCR2 (Homo sapiens, UniProt P25025)", "T2 sequence (P25025 1-360)": "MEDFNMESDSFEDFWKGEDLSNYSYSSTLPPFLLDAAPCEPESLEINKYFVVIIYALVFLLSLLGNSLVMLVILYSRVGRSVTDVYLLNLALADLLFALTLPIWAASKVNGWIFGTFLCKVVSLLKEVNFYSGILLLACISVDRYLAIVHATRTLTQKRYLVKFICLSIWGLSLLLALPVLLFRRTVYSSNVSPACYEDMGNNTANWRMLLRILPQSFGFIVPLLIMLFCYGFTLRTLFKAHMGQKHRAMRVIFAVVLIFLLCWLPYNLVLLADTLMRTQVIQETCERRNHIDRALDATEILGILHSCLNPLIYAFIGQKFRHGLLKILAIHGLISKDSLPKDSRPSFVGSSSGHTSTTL", "test": "Toxin susceptibility of HEK293T cells transfected with chemokine receptor CXCR2", "format": "cell-based", "design": "expressed in transfected cells; host or cells: HEK293T", "details": "viability (600 nM) or ethidium bromide permeability (1 hr; HlgAB/HlgCB 20 μg/ml)", "protocol": "(§4) Cell culture conditions and viral transductions. Primary human cells and THP-1 were cultured at 37° C. with 5% CO2 in RPMI supplemented with 10% fetal bovine serum (FBS; Atlanta Biologicals) and penicillin (100 U ml-1) and streptomycin (0.1 mg ml-1) (Mediatech) unless stated otherwise. Overexpression and lentiviral-based knockdown of Cxcr2 or non-target shRNA were performed as previously described (Wan et al., “Cytokine Signals Through PI-3 Kinase Pathway Modulate Th17 Cytokine Production by CCR6+ Human Memory T Cells,” J. Exp. Med. 208:1875-1887 (2011), which is hereby incorporated by reference in its entirety) and maintained in 1.3 μg ml-1 puromycin. HEK293T cells were cultured at 37° C. with 5% CO2 in DMEM (Cellgro) and supplemented as described above.\nas §3"}, "[2]": {"system": "PBMC subsets (NK cells, CD8^+ T cells, monocytes)", "test": "Susceptibility of PBMC subsets to toxins, flow cytometry", "format": "cell-based, human", "protocol": "as §1, §2, §3"}, "CXCR1": {"target": "T3, CXCR1 (Homo sapiens, UniProt P25024)", "T3 sequence (P25024 1-350)": "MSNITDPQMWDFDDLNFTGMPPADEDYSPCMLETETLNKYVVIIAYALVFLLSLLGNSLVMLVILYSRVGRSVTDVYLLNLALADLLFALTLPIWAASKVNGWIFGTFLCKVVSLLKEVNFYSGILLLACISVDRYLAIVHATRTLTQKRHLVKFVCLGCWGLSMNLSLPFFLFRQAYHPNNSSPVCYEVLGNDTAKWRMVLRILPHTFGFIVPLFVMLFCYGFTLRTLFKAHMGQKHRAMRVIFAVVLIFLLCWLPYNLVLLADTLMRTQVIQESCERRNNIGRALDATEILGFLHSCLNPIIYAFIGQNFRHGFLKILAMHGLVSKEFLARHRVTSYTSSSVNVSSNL", "test": "Toxin susceptibility of HEK293T cells transfected with chemokine receptor CXCR1", "format": "cell-based", "design": "expressed in transfected cells; host or cells: HEK293T", "details": "viability (600 nM) or ethidium bromide permeability (1 hr; HlgAB/HlgCB 20 μg/ml)"}, "human RBCs": {"system": "human RBCs", "test": "LukED-mediated lysis of human red blood cells", "format": "cell-based", "details": "RBCs from nine donors, DARC+ and DARC−"}, "DARC": {"target": "T4, DARC (Homo sapiens, UniProt Q16570)", "T4 construct": "expressed in transfected cells; host or cells: HEK293T", "T4 sequence (Q16570 1-336)": "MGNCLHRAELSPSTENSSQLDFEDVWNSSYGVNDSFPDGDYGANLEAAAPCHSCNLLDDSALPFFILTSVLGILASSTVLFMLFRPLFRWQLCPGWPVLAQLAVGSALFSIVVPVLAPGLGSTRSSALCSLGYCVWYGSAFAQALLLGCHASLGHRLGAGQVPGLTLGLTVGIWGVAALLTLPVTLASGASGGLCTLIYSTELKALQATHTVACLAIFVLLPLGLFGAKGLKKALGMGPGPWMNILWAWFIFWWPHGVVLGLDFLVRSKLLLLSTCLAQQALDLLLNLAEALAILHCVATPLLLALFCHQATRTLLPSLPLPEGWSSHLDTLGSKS", "test": "Toxin susceptibility of HEK293T cells transfected with DARC", "format": "cell-based", "details": "ethidium bromide permeability (1 hr; HlgAB/HlgCB 20 μg/ml)"}, "THP-1 cells": {"system": "THP-1 cells", "test": "Viability of THP-1 cells transduced with non-target or Cxcr2 shRNA treated with LukED", "format": "cell-based, human", "details": "Cxcr2 shRNA versus non-target shRNA", "protocol": "as §4, §3"}}}
{"molecule": "LukED: S. aureus bicomponent pore-forming leukotoxin leukocidin E/D, LukE plus LukD subunits (protein, left off: small tags and cut ends, S. aureus bicomponent pore-forming leukotoxin leukocidin E/D, LukE plus LukD subunits) chain 1: NTNIENIGDGAEVIKRTEDVSSKKWGVTQNVQFDFVKDKKYNKDALIVKMQGFINSRTSFSDVKGSGYELTKRMIWPFQYNIGLTTKDPNVSLINYLPKNKIETTDVGQTLGYNIGGNFQSAPSIGGNGSFNYSKTISYTQKSYVSEVDKQNSKSVKWGVKANEFVTPDGKKSAHDRYLFVQSPNGPTGSAREYFAPDNQLPPLVQSGFNPSFITTLSHEKGSSDTSEFEISYGRNLDITYATLFPRTGIYAERKHNAFVNRNFVVRYEVNWKTHEIKVKGHN chain 2: AQHITPVSEKKVDDKITLYKTTATSDNDKLNISQILTFNFIKDKSYDKDTLVLKAAGNINSGYKKPNPKDYNYSQFYWGGKYNVSVSSESNDAVNVVDYAPKNQNEEFQVQQTLGYSYGGDINISNGLSGGLNGSKSFSETINYKQESYRTTIDRKTNHKSIGWGVEAHKIMNNGWGPYGRDSYDPTYGNELFLGGRQSSSNAGQNFLPTHQMPLLARGNFNPEFISVLSHKQNDTKKSKIKVTYQREMDRYTNQWNRLHWVGNNYKNQNTVTFTSTYEVDWQNHTVKLIGTDSKETNPGV", "values": [{"measurement": "lethality in mice", "setting": "mice", "result": "rapid death"}, {"measurement": "cytotoxic activity against hPMNs", "setting": "human PMNs; LukE or alanine mutant mixed equimolar with LukD, n=8 donors", "result": "targeted and killed the hPMNs"}, {"measurement": "susceptibility of PMNs to toxin (viability)", "setting": "human PMNs; PMNs from Ccr5+/+ and Δ32Ccr5 donors, 75 nM", "result": "equally susceptible to LukED"}, {"measurement": "susceptibility of CCR5-transfected HEK293T cells to toxin", "setting": "CCR5", "result": "targets CCR5, CXCR1, CXCR2, and DARC to kill host cells"}, {"measurement": "LukED targeting of monocytes", "setting": "monocytes within PBMCs", "result": "targeted in a LukED-mediated, CCR5-independent manner"}, {"measurement": "susceptibility of murine CCR5+ macrophages", "setting": "[1]", "result": "equally susceptible to both LukED and LukE^DR4D"}, {"measurement": "murine PMNs killed", "setting": "[1]; 30 minutes on ice", "result": "~79", "unit": "%"}, {"measurement": "susceptibility of CXCR2-transfected HEK293T cells to toxin", "setting": "CXCR2", "result": "sufficient to render HEK293T cells susceptible"}, {"measurement": "cytotoxicity to NK cells and CD8+ T cells in PBMCs", "setting": "[2]", "result": "cytotoxic to the majority of NK cells and a subset of CD8^+ T cells"}, {"measurement": "susceptibility of CXCR1-transfected HEK293T cells to toxin", "setting": "CXCR1", "result": "sufficient to render HEK293T cells susceptible"}, {"measurement": "hemolysis of human RBCs", "setting": "human RBCs", "result": "some donors were susceptible to LukED hemolysis while others were not"}, {"measurement": "susceptibility of DARC-transfected HEK293T cells to toxin", "setting": "DARC", "result": "sufficient to render HEK293T cells susceptible"}, {"measurement": "LukED killing of THP-1 cells after CXCR2 knockdown", "setting": "THP-1 cells", "result": "rendered cells resistant to LukED killing"}]}
